Source: patent publication US20240050597A1, “RADIOLABELLED ALPHA-V BETA-3 AND/OR ALPHA-V BETA-5 INTEGRINS ANTAGONIST FOR USE AS THERAGNOSTIC AGENT” (ADVANCED ACCELERATOR APPLICATIONS INTERNATIONAL SA, priority 2020, published 2024)

Legend:
WM266 melanoma tumor = test system: WM266 melanoma tumor; set-up: species or system mice; settings: mouse, in vivo
Method: Nude, male and female athymic mice bearing the WM266 melanoma tumor were intravenously injected with ^68Ga-Compound (˜100-150/uCi 320-480 pmol for males, ˜100-150 uCi/127-191 pmol for females, corresponding to 3.7-5.55 MBq). Animals were sacrificed in groups of four at 30 min, 1 h, 2 h and 4 h post injection. Tumor and organs of interest were collected, weighed and measured for radioactivity with a gamma-counter. The intestines and stomach were not emptied of their contents. Data were calculated as a percentage of the injected dose per gram of tissue (% ID/g).

αvβ3 = αvβ3 (Homo sapiens, UniProt P05106+P06756); experiment: Affinity for αvβ3 (preclinical data, summary statement); format: binding
Chain of αvβ3 (P06756 31-889 limits assumed): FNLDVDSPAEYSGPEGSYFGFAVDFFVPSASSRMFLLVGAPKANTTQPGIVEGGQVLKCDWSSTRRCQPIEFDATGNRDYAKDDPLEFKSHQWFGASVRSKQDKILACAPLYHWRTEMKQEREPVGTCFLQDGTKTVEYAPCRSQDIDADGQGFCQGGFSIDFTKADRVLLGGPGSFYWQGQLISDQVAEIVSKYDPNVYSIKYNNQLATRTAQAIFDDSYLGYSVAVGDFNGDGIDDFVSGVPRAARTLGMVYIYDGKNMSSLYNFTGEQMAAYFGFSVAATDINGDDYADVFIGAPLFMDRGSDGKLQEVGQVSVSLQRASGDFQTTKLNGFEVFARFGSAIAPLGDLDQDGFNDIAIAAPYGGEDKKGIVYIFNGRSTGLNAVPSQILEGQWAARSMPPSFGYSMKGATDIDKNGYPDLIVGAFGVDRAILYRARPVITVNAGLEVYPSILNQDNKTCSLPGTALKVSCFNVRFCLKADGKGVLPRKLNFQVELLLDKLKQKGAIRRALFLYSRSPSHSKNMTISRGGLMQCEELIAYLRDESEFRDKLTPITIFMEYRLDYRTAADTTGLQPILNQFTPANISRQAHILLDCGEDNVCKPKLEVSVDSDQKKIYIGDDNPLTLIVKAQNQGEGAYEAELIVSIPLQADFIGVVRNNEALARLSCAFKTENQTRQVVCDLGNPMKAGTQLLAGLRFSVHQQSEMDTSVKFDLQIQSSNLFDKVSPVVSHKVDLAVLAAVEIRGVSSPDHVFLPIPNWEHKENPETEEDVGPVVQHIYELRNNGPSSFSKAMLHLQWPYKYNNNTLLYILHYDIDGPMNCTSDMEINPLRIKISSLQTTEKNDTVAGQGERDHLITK
Chain of αvβ3 (P06756 891-1048 partner limits assumed): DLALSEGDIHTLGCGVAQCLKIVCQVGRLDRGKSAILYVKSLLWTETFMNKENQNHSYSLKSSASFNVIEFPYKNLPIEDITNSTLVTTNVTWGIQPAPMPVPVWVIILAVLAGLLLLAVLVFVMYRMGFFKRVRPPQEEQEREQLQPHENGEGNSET
Chain of αvβ3 (P05106 27-788): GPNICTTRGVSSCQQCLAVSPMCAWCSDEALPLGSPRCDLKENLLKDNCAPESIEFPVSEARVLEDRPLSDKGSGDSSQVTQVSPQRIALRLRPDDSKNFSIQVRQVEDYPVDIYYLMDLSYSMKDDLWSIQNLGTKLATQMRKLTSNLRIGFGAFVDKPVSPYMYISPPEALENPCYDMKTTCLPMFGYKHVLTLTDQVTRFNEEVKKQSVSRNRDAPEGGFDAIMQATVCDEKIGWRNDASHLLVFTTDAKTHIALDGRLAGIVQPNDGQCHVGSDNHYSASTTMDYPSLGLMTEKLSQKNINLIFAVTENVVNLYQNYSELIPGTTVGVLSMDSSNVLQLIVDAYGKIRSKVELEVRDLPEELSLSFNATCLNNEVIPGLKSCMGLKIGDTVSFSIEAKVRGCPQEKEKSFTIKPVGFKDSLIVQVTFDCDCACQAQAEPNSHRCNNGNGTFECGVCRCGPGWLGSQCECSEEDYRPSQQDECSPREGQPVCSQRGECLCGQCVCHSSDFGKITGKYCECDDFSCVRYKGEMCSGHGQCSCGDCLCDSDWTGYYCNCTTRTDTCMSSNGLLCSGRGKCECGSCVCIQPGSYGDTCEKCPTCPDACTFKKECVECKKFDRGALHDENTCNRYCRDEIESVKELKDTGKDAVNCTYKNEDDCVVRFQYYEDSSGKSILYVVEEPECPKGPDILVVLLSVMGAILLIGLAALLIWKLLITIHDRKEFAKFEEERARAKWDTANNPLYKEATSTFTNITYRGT

αvβ5 = αvβ5 (Homo sapiens, UniProt P06756+P18084); experiment: Affinity for αvβ5 (preclinical data, summary statement); format: binding
Chain of αvβ5 (P06756 31-889 limits assumed): as the sequence (P06756 31-889 limits assumed) above
Chain of αvβ5 (P06756 891-1048 partner limits assumed): as the sequence (P06756 891-1048 partner limits assumed) above
Chain of αvβ5 (P18084 24-799): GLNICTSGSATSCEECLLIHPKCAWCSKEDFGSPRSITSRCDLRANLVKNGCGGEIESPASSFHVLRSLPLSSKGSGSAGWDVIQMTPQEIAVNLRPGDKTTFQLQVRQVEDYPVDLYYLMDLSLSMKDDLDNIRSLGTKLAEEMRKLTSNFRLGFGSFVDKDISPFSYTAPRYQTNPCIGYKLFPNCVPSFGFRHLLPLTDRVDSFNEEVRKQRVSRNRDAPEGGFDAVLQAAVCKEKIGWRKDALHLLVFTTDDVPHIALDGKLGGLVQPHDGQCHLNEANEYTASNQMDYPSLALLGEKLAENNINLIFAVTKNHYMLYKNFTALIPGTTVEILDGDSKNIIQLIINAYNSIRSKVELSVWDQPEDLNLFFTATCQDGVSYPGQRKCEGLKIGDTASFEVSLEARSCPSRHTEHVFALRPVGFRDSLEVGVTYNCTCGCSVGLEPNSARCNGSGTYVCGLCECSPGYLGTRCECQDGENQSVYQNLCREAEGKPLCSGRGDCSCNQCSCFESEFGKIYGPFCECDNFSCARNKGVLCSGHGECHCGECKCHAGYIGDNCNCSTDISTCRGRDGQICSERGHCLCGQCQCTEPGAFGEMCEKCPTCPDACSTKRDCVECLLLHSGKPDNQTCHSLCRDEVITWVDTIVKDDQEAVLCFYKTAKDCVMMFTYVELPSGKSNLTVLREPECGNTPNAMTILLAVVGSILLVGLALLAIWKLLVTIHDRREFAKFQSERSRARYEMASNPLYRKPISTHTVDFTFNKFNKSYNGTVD

other receptors = experiment: Affinity for other receptors (preclinical data, summary statement); format: binding
[1] = Preliminary tests of FF58 resistance to radiation stress; format: physicochemical
Method: Additional tests were performed in order to evaluate the radiolysis also in more stressful conditions such as 40° C. storage temperature and rolling, decreasing antioxidant agent (sodium ascorbate and gentisic acid) amounts. The radiochemical purity (RCP) was monitored at release time and at expiration time by Radio-RP-HPLC.

With `Cc1cc(OCCCC(=O)NCCNC(=O)[C@H](CS(=O)(=O)O)NC(=O)CN2CCN(CC(=O)O)CCN(CC(=O)O)CCN(CC(=O)O)CC2)cc(C)c1S(=O)(=O)NC(CNC(=O)CCCCc1ccc2c(n1)NCCC2)C(=O)O` (single isomer, unassigned) [^68Ga-Compound, metal not drawn] the “background uptake in normal organs” value (WM266 melanoma tumor) was “cleared moderately by 4 h”, the “excretion (uptake in the kidneys and intestine)” value (WM266 melanoma tumor) was “renal and partial hepatic excretion” and the “affinity for αvβ3” value (αvβ3) was “high affinity”. The “affinity for αvβ5” value (αvβ5) was “high affinity” and the “affinity for other receptors” value (other receptors) was “absence of affinity”.
With `Cc1cc(OCCCC(=O)NCCNC(=O)[C@H](CS(=O)(=O)O)NC(=O)CN2CCN(CC(=O)O)CCN(CC(=O)O)CCN(CC(=O)O)CC2)cc(C)c1S(=O)(=O)NC(CNC(=O)CCCCc1ccc2c(n1)NCCC2)C(=O)O` (stereo partly drawn) [FF58] the “resistance to the radiation stress” value [1] was “good resistance to the radiation stress”.
